Read-outs that look alike come from different tables or passages of the source.

From paper PMC6166713 come the findings set out here.

Among the targets are GST-WASP(201–321) L270A (UniProt P42768); GST-WASP(201–321) F244A (UniProt P42768); GST-WASP(201–321) K226A (UniProt P42768); GST-WASP(201–321) K225A (UniProt P42768); GST-WASP(201–321) R227A (UniProt P42768); GST-WASP(201–321) K231A (UniProt P42768); GST-WASP(201–321) K230A (UniProt P42768); GST-WASP(201–321) K232A (UniProt P42768).
What all share (assay): scintillation proximity assay (SPA); 5 nM GST-WASP variant immobilised on protein A SPA fluoromicrospheres via an anti-GST antibody; varying concentrations of [3H]GTP·Cdc42; direct binding isotherm; apparent Kd; low-salt buffer
In general terms: Scintillation proximity formats need no separation of bound from free tracer.

In test [1] the target is GST-WASP(201–321) wild type (UniProt P42768).
For test [2], the target named is GST-WASP(201–321) K230A/K231A/K232A (UniProt P42768).
The target of test [3] is GST-WASP(201–321) K230A/K231A (UniProt P42768).
The target in test [4] is GST-WASP(201–321) K225A/K226A/R227A (UniProt P42768).
Test [5] concerns the target GST-WASP(201–321) K230A/K232A (UniProt P42768).
The target in test [6] is GST-WASP(201–321) K225A/R227A (UniProt P42768).
The target of test [7] is GST-WASP(201–321) K226A/R227A (UniProt P42768).
The target in test [8] is GST-WASP(201–321) K225A/K226A (UniProt P42768).
The target of test [9] is GST-WASP(201–321) wild type (UniProt P42768). The source holds these as a separate data set.
For test [10], the target named is GST-WASP(201–321) K231A/K232A (UniProt P42768).
Test [11] deals with GST-WASP(201–321) K225A/K226A/R227A/K230A/K231A/K232A (UniProt P42768).

For “Cdc42 Δ7 Q61L (from UniProt P60953 1-191) (natural protein)”, the Kd is 1.7 nM with GST-WASP(201–321) L270A; 64.9 nM with GST-WASP(201–321) F244A; 0.5 nM in [1]; 5.4 µM with GST-WASP(201–321) K226A; 2800 nM in the test with GST-WASP(201–321) K225A; 36 µM in test [2]. Also, the Kd turned out to be 12.9 µM in test [3]; 8.8 µM in [4]; 4.3 µM in the test with GST-WASP(201–321) R227A; 12.4 µM with GST-WASP(201–321) K231A; 9.7 µM in the test with GST-WASP(201–321) K230A; 18.4 µM in [5]. For the same substance, the Kd came to 7.5 µM in test [6]; 5.7 µM in test [7]; 7.4 µM in [8]; 500 nM in [9]; 12.2 µM with GST-WASP(201–321) K232A; 21.7 µM in [10]. The Kd in test [11] was 98.6 µM.
